Reference: PMC314469, “Protein Interaction Networks by Proteome Peptide Scanning” (PLoS Biology, 2004)

T1: Boi2 SH3 (BOI2_YEAST), P39969
T1 chain: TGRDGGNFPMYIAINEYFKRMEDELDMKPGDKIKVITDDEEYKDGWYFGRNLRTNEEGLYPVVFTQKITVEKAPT

T2: Rvs167 SH3 (RV167_YEAST), P39743
T2 chain: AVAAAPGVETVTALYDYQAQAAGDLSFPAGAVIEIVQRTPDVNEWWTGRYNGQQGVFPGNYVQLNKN

T3: Yfr024 SH3 (LSB3_YEAST), P43603
T3 chain: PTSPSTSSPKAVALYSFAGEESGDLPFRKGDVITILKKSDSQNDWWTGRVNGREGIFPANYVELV

T4: Yhr016c SH3 (YSC84_YEAST), P32793
T4 chain: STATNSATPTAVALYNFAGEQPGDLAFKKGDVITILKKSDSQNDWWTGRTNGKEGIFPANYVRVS

T5: Boi1 SH3 (BOI1_YEAST), P38041
T5 chain: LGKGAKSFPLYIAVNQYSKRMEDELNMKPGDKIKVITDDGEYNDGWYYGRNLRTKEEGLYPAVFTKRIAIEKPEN


Target: T1, Boi2 SH3 (BOI2_YEAST), P39969
Assay: SPOT array

Binder	normalised SPOT signal, Boehringer light units (BLU); mean over the file's lines of this peptide
QSNPTSPTKQTFTI [YBL085W 600-613]	65.7
QYIPPPPPKYINSK [YDR207C 482-495]	45.9
QSQPPRPPRPAANL [YGR268C 24-37]	16
QTSPGQPRKGQNGS [YFR028C 427-440]	22.6
QYYPEEPTKPTVKT [YGR019W 6-19]	37.2
RAPPPVPKKPSSRI [YIR003W 387-400]	42
RGTPANPGRVATLI [YER163C 47-60]	0
QSTPTPPAKRLFLI [YKL165C 41-54]	48.8
RAVPILPPRNNVEP [YBR108W 543-556]	77
RIPPTVPSKIIDVV [YGR198W 7-20]	22.2
QRQPKRPKRYSLLL [YJR147W 216-229]	194
RDKPSEPERTKDGS [YJL184W 49-62]	27.8

Results, then the binder that gave them:

normalised SPOT signal, Boehringer light units (BLU); mean over the file's lines of this peptide	Binder
62	RFDPKSPTKRSIAI [YMR129W 524-537]
22.9	QVPPKSPEKSGWLY [YNL257C 304-317]
92.9	RSSPWSPSRSHGAV [YLR169W 91-104]
38.4	RFNPAIPLRIYLKT [YLR073C 15-28]
14.3	RGPPPLPPRANVQP [YLR144C 22-35]
14.7	RGIPARPSKDDVMK [YPL073C 83-96]
35.1	QTYPAQPPKIGNAF [YMR016C 219-232]
3450	QSPPRSPGRSPTRR [YLR086W 108-121]
65.9	REEPPLPKRIRISK [YKL214C 57-70]
62.7	RHRPQKPVRTVIYT [YOL164W 148-161]

Target: T2, Rvs167 SH3 (RV167_YEAST), P39743
Assay: SPOT array

Binder	normalised SPOT signal, Boehringer light units (BLU); mean over the file's lines of this peptide
QSNPTSPTKQTFTI [YBL085W 600-613]	60.4
QYIPPPPPKYINSK [YDR207C 482-495]	112
QSQPPRPPRPAANL [YGR268C 24-37]	105
QTSPGQPRKGQNGS [YFR028C 427-440]	64
QYYPEEPTKPTVKT [YGR019W 6-19]	6.4
RAPPPVPKKPSSRI [YIR003W 387-400]	29.1
RGTPANPGRVATLI [YER163C 47-60]	48.8
QSTPTPPAKRLFLI [YKL165C 41-54]	35.4
RAVPILPPRNNVEP [YBR108W 543-556]	59500
RIPPTVPSKIIDVV [YGR198W 7-20]	44.9
QRQPKRPKRYSLLL [YJR147W 216-229]	104
RDKPSEPERTKDGS [YJL184W 49-62]	24.1

The remaining lines, values ahead:

normalised SPOT signal, Boehringer light units (BLU); mean over the file's lines of this peptide	Binder
40	RFDPKSPTKRSIAI [YMR129W 524-537]
23.7	QVPPKSPEKSGWLY [YNL257C 304-317]
117	RSSPWSPSRSHGAV [YLR169W 91-104]
116	RFNPAIPLRIYLKT [YLR073C 15-28]
18300	RGPPPLPPRANVQP [YLR144C 22-35]
1080	RGIPARPSKDDVMK [YPL073C 83-96]
33.9	QTYPAQPPKIGNAF [YMR016C 219-232]
906	QSPPRSPGRSPTRR [YLR086W 108-121]
11800	REEPPLPKRIRISK [YKL214C 57-70]
48.3	RHRPQKPVRTVIYT [YOL164W 148-161]

Target: T3, Yfr024 SH3 (LSB3_YEAST), P43603
Assay: SPOT array

Binder	normalised SPOT signal, Boehringer light units (BLU); mean over the file's lines of this peptide
QSNPTSPTKQTFTI [YBL085W 600-613]	148
QYIPPPPPKYINSK [YDR207C 482-495]	393
QSQPPRPPRPAANL [YGR268C 24-37]	27400
QTSPGQPRKGQNGS [YFR028C 427-440]	118
QYYPEEPTKPTVKT [YGR019W 6-19]	49.9
RAPPPVPKKPSSRI [YIR003W 387-400]	28900
RGTPANPGRVATLI [YER163C 47-60]	146
QSTPTPPAKRLFLI [YKL165C 41-54]	1420
RAVPILPPRNNVEP [YBR108W 543-556]	38300
RIPPTVPSKIIDVV [YGR198W 7-20]	618
QRQPKRPKRYSLLL [YJR147W 216-229]	5420
RDKPSEPERTKDGS [YJL184W 49-62]	112

Next, values leading:

normalised SPOT signal, Boehringer light units (BLU); mean over the file's lines of this peptide	Binder
321	RFDPKSPTKRSIAI [YMR129W 524-537]
0	QVPPKSPEKSGWLY [YNL257C 304-317]
2360	RSSPWSPSRSHGAV [YLR169W 91-104]
3040	RFNPAIPLRIYLKT [YLR073C 15-28]
25900	RGPPPLPPRANVQP [YLR144C 22-35]
7220	RGIPARPSKDDVMK [YPL073C 83-96]
117	QTYPAQPPKIGNAF [YMR016C 219-232]
1890	QSPPRSPGRSPTRR [YLR086W 108-121]
49100	REEPPLPKRIRISK [YKL214C 57-70]
3300	RHRPQKPVRTVIYT [YOL164W 148-161]

Target: T4, Yhr016c SH3 (YSC84_YEAST), P32793
Assay: SPOT array

Binder	normalised SPOT signal, Boehringer light units (BLU); mean over the file's lines of this peptide
QSNPTSPTKQTFTI [YBL085W 600-613]	182
QYIPPPPPKYINSK [YDR207C 482-495]	81.6
QSQPPRPPRPAANL [YGR268C 24-37]	11000
QTSPGQPRKGQNGS [YFR028C 427-440]	177
QYYPEEPTKPTVKT [YGR019W 6-19]	85.8
RAPPPVPKKPSSRI [YIR003W 387-400]	501
RGTPANPGRVATLI [YER163C 47-60]	199
QSTPTPPAKRLFLI [YKL165C 41-54]	146
RAVPILPPRNNVEP [YBR108W 543-556]	33600
RIPPTVPSKIIDVV [YGR198W 7-20]	158
QRQPKRPKRYSLLL [YJR147W 216-229]	613
RDKPSEPERTKDGS [YJL184W 49-62]	120

More lines, now with the values ahead:

normalised SPOT signal, Boehringer light units (BLU); mean over the file's lines of this peptide	Binder
71.9	RFDPKSPTKRSIAI [YMR129W 524-537]
117	QVPPKSPEKSGWLY [YNL257C 304-317]
1090	RSSPWSPSRSHGAV [YLR169W 91-104]
846	RFNPAIPLRIYLKT [YLR073C 15-28]
33400	RGPPPLPPRANVQP [YLR144C 22-35]
880	RGIPARPSKDDVMK [YPL073C 83-96]
263	QTYPAQPPKIGNAF [YMR016C 219-232]
408	QSPPRSPGRSPTRR [YLR086W 108-121]
50200	REEPPLPKRIRISK [YKL214C 57-70]
90.2	RHRPQKPVRTVIYT [YOL164W 148-161]

Target: T5, Boi1 SH3 (BOI1_YEAST), P38041
Assay: SPOT array

Binder	normalised SPOT signal, Boehringer light units (BLU); mean over the file's lines of this peptide
QSNPTSPTKQTFTI [YBL085W 600-613]	62.2
QYIPPPPPKYINSK [YDR207C 482-495]	122
QSQPPRPPRPAANL [YGR268C 24-37]	577
QTSPGQPRKGQNGS [YFR028C 427-440]	157
QYYPEEPTKPTVKT [YGR019W 6-19]	55.2
RAPPPVPKKPSSRI [YIR003W 387-400]	129
RGTPANPGRVATLI [YER163C 47-60]	147
QSTPTPPAKRLFLI [YKL165C 41-54]	56.9
RAVPILPPRNNVEP [YBR108W 543-556]	49.7
RIPPTVPSKIIDVV [YGR198W 7-20]	43.1
QRQPKRPKRYSLLL [YJR147W 216-229]	117
RDKPSEPERTKDGS [YJL184W 49-62]	74.9

Continued, values first:

normalised SPOT signal, Boehringer light units (BLU); mean over the file's lines of this peptide	Binder
129	RFDPKSPTKRSIAI [YMR129W 524-537]
11.9	QVPPKSPEKSGWLY [YNL257C 304-317]
147	RSSPWSPSRSHGAV [YLR169W 91-104]
66.6	RFNPAIPLRIYLKT [YLR073C 15-28]
3000	RGPPPLPPRANVQP [YLR144C 22-35]
55	RGIPARPSKDDVMK [YPL073C 83-96]
42.7	QTYPAQPPKIGNAF [YMR016C 219-232]
33500	QSPPRSPGRSPTRR [YLR086W 108-121]
2310	REEPPLPKRIRISK [YKL214C 57-70]
101	RHRPQKPVRTVIYT [YOL164W 148-161]
